The record followed here is publication PMC10512467, “Alternative splicing of a single exon causes a major impact on the affinity of Caenorhabditis elegans tropomyosin isoforms for actin filaments” (Frontiers in Cell and Developmental Biology, 2023).

The assay concerns the target F-actin (actin purified from rabbit muscle acetone powder) (rabbit, UniProt P68135 1-377). In words: co-sedimentation; F-actin co-sedimentation (supernatant depletion): constant 2 uM LEV-11 isoform with 0-60 uM F-actin, 1 h, in F-buffer (0.1 M KCl, 2 mM MgCl2, 20 mM HEPES-KOH, pH 7.5, 1 mM dithiothreitol); 200,000 x g for 20 min; bound portion from the depletion of the supernatant, SDS-PAGE densitometry. The conditions noted are these: both partners purified.

B1: LEV-11T (C. elegans low-molecular-weight tropomyosin isoform, exons E3b-E4a-E5a-E6-E7b-E8-E9b), recombinant with extra Ala-Ser after the initiator Met (natural protein)
chain: MASSKVNKEGAQQTSLLDVLKKKMRQAREEAEAAKDEADEVKRQLEEERKKREDAEAEVAALNRRIVLVEEDLERTEDRLKTATSKLEQATKAADEADRARKSMETRSQQDEERANFLETQVDEAKVIAEDADRKYEEVARKLAMVEADLERAEERAEAGENKIVELEEELRVVGNNLKSLEVSEEKALQREDSYEEQIRTVSSRLKEAETRAEFAERSVQKLQKEVDRLEELRDAEVLKARQLQDELDHMVQELNSV
In the case of B1, the Kd came to 3.7 µM.
